Test results taken from paper PMC8534003 (Cancers, 2021).
Where no end group is shown, it is not given here. The star is where a group is joined. Biotin = O=C1N[C@H]2[C@H](CS[C@H]2CCCCC(=O)*)N1

Biological target: T1, human recombinant FGF-2 (human, UniProt P09038 143-288)
T1 construct: basic fibroblast growth factor (FGF-2), human recombinant; also called basic fibroblast growth factor; source: bought: R&D Systems
Assay: grating-coupled interferometry; Creoptix WAVEdelta, 4PCP-STA chip; biotinylated CXCL9(74-103) captured on streptavidin; FGF-2 as analyte 4.53 nM-1.10 µM in duplicate; 25 °C; PBS with 30 mM NaCl, 15 mM L-arginine, 0.015% Tween 20, 0.05 mg/mL BSA, pH 7.4; 1:1 binding model with bulk correction
Details: both partners purified

T1 sequence (P09038 143-288): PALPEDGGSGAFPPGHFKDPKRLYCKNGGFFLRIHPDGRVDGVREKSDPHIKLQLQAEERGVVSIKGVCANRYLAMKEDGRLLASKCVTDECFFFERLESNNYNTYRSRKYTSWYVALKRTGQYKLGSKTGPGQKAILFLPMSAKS

B1: biotinylated CXCL9(74-103) (peptide)
peptide: Biotin-KKKQKNGKKHQKKKVLKVRKSQRSRQKKTT
notes: Site-specifically biotinylated at the NH2-terminus with biotin-p-nitrophenyl ester; source: synthetic peptide (Fmoc solid-phase synthesis)
In the case of B1, the Kd is reported as 100 nM.
